Experimental data from patent US20190185532A1 (UNIVERSITY OF BIRMINGHAM, published 2019).

How the values were obtained:
Test in all cases: flow cytometry on transfected HEK293T cells, streptavidin-PE
[1] = molecular target: T1, CLEC14A (human, wild type, C-terminal GFP tag, expressed in HEK293T) (human, UniProt Q86T13 22-490)
T1 construct: On cells in flow cytometry; as non-reduced HEK293T lysate in far western blots; also called CLEC14A wt; cell surface expressed CLEC14A; not shown: C-terminal green fluorescent protein (GFP) tag from vector pEGFP-N1
T1 sequence: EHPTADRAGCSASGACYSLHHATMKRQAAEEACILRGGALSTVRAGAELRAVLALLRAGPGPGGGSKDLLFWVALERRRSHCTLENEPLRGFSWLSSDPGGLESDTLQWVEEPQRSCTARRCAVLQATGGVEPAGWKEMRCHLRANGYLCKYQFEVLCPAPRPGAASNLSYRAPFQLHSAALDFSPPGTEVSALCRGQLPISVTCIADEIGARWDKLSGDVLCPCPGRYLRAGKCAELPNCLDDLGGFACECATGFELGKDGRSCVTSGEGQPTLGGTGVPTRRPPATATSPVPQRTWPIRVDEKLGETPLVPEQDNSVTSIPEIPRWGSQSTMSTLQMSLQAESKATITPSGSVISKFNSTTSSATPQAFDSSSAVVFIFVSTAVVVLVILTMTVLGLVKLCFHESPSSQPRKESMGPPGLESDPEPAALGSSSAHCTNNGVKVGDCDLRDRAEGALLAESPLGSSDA
Description: (§1) The minimal CLEC14A binding fragment is highlighted in black. (B,C) HEK293T were transfected with truncation mutants. Lysates were far western blotted under reduced conditions with CLEC14A extracellular domain fused to an Fc tag (CLEC14A-ECD-Fc) and western blotted by use of His tag antibodies. (B) The smallest binding fragment was identified as MMRN2⁴⁸⁷⁻⁸²⁰, MMRN2^FL fails to bind CLEC14A-ECD-Fc. (C) The smallest MMRN2 fragment binding CLEC14A is MMRN2⁵³⁰⁻⁶²⁴. (D) MMRN2⁴⁹⁵⁻⁶⁷⁴ and MMRN2⁴⁹⁵⁻⁶⁰³ bind to streptavidin under reducing conditions after biotinylation. (E) Flow cytometry histograms of HEK293T transfected with GFP tagged CTLD group 14 family members and stained with biotinylated MMRN2⁴⁹⁵⁻⁶⁷⁴ (grey line), confirming binding to CLEC14A and CD93 but not thrombomodulin. Streptavidin-PE was used as a control for background binding (grey shaded).
(§2) The human MMRN2⁴⁹⁵⁻⁶⁷⁴ fragment along with the non-CLEC14A binding fragment MMRN2⁴⁹⁵⁻⁶⁰³ was expressed in E. coil with a His tag for purification and a BirA tag for specific biotinylation (17). Biotinylated proteins could bind to streptavidin in western blots (FIG. 2D) and MMRN2⁴⁹⁵⁻⁶⁷⁴ could bind to cell surface expressed CLEC14A and CD93 but not thrombomodulin detected by flow cytometry. This confirmed the CLEC14A and CD93 interactions likely occur in the same region of MMRN2 (FIG. 2E).
(§3) HUVEC or transfected HEK293T cells were detached from tissue culture plates using cell dissociation buffer or scraped and 5×10⁵ cells were stained with 20 ug/mL of antibody of interest or 20 μg/mL of recombinant protein. In blocking experiments, hCLEC14A-ECD-Fc was incubated with 2× molar excess of antibody or recombinant protein on ice for 1 hour. Flow cytometry buffer (PBS with 0.2% (w/v) BSA and 0.02% (w/v) sodium azide) was used for all wash and incubation steps. Samples were analysed on a FACSCalibur machine (BD Biosciences). […] Isotype control staining or human Fc alone was used as background fluorescence and this was subtracted from the geometric mean fluorescence intensity of each sample.

[2] = molecular target: T2, CD93 (human, wild type, C-terminal GFP tag, expressed in HEK293T) (human, UniProt Q9NPY3 22-652)
T2 construct: On cells in flow cytometry; as non-reduced HEK293T lysate in far western blots; also called CD93 wild type (wt); cell surface expressed CD93; not shown: C-terminal green fluorescent protein (GFP) tag from vector pEGFP-N1
T2 sequence: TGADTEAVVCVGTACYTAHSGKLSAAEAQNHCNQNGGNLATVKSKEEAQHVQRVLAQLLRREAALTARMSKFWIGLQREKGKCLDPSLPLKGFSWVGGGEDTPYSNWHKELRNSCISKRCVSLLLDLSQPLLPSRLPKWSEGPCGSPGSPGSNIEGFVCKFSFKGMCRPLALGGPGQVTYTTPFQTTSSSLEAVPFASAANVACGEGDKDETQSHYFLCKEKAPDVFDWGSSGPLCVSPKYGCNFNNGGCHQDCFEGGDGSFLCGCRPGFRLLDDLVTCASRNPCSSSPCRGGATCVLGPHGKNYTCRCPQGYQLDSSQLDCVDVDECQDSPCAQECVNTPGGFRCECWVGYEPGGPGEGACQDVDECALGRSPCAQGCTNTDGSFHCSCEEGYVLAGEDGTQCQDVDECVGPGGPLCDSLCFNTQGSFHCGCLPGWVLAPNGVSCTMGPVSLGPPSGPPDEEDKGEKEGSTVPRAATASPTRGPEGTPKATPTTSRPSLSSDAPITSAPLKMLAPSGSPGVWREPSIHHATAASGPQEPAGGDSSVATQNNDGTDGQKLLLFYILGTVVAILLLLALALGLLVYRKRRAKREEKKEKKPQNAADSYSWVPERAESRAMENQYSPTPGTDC
Description: as §1, §2, §3

[3] = molecular target: T3, thrombomodulin (human, C-terminal GFP tag, expressed in HEK293T) (human, UniProt P07204 19-575)
T3 construct: whole, on cells; On cells in flow cytometry; as non-reduced HEK293T lysate in far western blots; also called THBD; THBD wt; not shown: C-terminal green fluorescent protein (GFP) tag from vector pEGFP-N1
T3 sequence (P07204 19-575): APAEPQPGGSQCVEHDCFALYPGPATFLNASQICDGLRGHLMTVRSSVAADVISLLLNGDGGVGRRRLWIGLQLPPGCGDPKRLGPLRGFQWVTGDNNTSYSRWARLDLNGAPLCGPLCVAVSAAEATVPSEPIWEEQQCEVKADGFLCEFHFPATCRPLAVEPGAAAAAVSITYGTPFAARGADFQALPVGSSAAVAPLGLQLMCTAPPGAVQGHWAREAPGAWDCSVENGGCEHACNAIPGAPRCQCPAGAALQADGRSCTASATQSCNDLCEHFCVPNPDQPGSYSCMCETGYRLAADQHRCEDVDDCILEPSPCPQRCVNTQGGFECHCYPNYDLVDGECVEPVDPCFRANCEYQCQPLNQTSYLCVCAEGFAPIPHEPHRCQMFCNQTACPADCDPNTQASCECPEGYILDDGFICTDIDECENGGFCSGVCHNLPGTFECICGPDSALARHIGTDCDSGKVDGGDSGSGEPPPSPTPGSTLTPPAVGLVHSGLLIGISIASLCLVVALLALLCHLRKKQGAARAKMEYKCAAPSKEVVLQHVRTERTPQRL
Description: as §1, §2, §3

B1: biotinylated MMRN2^495-674 (human, expressed in E. coli with a His tag and a BirA tag) (ligand)
chain: QKLYLDLDVIREGQRDATRALEETQVSLDERRQLDGSSLQALQNAVDAVSLAVDAHKAEGERARAATSRLRSQVQALDDEVGALKAAAAEARHEVRQLHSAFAALLEDALRHEAVLAALFGEEVLEEMSEQTPGPLPLSYEQIRVALQDAASGLQEQALGWDELAARVTALEQASEPPRP
modifications: biotin on the BirA tag
notes: Used for staining of transfected HEK293T cells in flow cytometry, detected with streptavidin-PE; not shown: BirA tag and His tag (vector pET23a)
binding result [1]: binds | binding result [2]: binds | binding result [3]: no binding (tested: 20 µg/mL)
